Molecular target: Mre11-Rad50 (hMR) WT-WT;Nbs1 (Homo sapiens;Homo sapiens, UniProt Q92878;P49959;O60934 1-1312;1-708;1-754, |)
Assay: EMSA

Chain of Mre11-Rad50 (hMR) WT-WT;Nbs1 (Q92878 whole entry, chain 1 of 3): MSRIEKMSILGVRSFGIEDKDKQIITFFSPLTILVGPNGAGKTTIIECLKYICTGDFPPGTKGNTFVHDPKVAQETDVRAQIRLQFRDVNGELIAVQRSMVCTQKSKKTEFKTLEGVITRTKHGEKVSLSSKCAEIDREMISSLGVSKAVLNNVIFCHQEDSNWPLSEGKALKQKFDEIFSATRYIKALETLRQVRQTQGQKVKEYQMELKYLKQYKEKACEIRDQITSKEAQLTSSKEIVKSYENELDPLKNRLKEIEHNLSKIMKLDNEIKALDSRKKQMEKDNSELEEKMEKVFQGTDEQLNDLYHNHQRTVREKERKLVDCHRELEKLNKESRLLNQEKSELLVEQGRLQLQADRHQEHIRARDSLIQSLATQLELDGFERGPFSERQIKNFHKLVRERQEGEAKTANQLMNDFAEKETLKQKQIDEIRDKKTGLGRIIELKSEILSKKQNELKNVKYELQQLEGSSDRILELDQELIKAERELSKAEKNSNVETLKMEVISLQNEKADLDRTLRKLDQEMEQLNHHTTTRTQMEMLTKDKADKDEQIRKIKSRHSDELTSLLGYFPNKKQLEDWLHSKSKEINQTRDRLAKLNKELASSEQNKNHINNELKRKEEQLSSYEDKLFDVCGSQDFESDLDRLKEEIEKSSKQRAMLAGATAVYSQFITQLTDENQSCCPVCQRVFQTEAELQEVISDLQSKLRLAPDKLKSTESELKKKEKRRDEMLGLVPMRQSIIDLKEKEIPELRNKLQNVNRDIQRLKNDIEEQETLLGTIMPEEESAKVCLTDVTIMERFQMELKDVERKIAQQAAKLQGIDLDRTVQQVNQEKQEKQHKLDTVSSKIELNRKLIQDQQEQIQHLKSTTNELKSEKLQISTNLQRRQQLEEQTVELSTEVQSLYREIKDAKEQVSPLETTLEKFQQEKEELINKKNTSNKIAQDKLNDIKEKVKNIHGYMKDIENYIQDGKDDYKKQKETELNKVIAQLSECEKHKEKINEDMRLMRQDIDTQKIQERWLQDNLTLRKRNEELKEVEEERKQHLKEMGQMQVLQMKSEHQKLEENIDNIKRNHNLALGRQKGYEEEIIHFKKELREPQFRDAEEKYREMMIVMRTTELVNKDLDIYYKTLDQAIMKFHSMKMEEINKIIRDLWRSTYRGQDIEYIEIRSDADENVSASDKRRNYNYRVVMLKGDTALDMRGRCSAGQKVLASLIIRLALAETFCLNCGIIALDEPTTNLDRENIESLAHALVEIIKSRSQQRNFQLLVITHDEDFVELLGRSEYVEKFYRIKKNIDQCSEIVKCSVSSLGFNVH
Chain of Mre11-Rad50 (hMR) WT-WT;Nbs1 (P49959 whole entry, chain 2 of 3): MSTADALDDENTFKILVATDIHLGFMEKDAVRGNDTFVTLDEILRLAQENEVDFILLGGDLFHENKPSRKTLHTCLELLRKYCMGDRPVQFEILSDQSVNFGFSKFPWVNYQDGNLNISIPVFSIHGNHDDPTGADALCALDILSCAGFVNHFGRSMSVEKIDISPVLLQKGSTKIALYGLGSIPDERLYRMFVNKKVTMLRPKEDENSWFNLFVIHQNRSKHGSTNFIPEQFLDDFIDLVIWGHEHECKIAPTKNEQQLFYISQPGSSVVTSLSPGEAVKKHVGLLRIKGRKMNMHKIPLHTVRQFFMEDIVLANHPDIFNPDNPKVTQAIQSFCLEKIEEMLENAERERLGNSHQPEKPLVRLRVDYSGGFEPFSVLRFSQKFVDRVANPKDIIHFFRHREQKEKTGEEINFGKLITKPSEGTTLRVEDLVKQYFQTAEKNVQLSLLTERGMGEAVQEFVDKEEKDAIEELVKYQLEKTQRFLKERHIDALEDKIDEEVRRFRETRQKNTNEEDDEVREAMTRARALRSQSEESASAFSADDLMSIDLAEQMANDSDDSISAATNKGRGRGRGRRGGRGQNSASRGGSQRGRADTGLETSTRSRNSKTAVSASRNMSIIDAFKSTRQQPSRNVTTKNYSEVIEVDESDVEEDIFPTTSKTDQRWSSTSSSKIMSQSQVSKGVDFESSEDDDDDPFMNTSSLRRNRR
Chain of Mre11-Rad50 (hMR) WT-WT;Nbs1 (O60934 whole entry, chain 3 of 3): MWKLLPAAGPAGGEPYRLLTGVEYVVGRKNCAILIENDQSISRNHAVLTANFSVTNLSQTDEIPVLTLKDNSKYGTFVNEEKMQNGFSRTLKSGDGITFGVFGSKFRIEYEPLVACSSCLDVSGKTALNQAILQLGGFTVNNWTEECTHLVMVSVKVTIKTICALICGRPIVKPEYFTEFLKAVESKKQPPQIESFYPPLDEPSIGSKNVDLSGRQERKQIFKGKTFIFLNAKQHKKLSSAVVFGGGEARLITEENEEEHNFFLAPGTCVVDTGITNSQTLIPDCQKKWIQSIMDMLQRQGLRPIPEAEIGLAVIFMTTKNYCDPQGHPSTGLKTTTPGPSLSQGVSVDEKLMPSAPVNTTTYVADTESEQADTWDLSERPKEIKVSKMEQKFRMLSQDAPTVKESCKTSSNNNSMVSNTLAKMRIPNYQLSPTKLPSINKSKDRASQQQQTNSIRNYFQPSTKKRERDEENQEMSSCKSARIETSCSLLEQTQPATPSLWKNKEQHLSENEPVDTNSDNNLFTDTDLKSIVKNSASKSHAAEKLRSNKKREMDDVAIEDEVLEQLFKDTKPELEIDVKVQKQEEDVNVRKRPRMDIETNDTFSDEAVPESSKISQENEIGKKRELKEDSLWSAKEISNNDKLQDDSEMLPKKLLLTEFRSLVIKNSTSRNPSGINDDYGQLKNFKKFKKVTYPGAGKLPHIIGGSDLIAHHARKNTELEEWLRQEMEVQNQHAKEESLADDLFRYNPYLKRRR

B1: TP4536/TP4559 (dsDNA)
DNA 1: TGGGTCAACGTGGGCAAAGATGTCCTAGCAATGTAATCGTCTATGACGTT
DNA 2: AACGTCATAGACGATTACATTGCTAGGACATCTTTGCCCACGTTGACCCA
modifications: 5' biotin-TEG on strand 1; five phosphorothioate bonds at 3' end of strand 2 (G*A*C*C*C*A)
binding result: binds
